Source: paper PMC3591310, “Characterization and Functional Analysis of Four Glutathione S-Transferases from the Migratory Locust, Locusta migratoria” (PLoS ONE, 2013)
Read-outs that look alike come from different tables or passages of the source.

Experiments:
LmGSTu1 [1] = target: T1, LmGSTu1 (Locusta migratoria, UniProt F4YUI9); test: inhibition of CDNB-GSH conjugation, absorbance […] nm; assay type: biochemical; settings: read-out: I50
T1 construct: E. coli BL21 (DE3)
T1 sequence (F4YUI9 1-214): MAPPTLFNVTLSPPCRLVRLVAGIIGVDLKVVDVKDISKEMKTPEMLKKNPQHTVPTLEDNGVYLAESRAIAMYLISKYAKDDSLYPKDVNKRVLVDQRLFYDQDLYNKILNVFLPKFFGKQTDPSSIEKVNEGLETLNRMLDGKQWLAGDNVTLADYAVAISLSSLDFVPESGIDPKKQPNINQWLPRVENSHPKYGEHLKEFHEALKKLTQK

LmGSTs5 [2] = target: T2, LmGSTs5 (Locusta migratoria, UniProt F4YUJ4); test: as above; assay type: biochemical; settings: read-out: I50
T2 construct: E. coli JM109
T2 sequence (F4YUJ4 1-202): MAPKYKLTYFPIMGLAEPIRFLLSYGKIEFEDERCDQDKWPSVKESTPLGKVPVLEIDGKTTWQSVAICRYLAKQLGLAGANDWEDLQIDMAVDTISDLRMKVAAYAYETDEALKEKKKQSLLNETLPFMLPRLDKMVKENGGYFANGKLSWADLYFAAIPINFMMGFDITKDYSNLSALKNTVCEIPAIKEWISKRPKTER

LmGSTt1 [3] = target: T3, LmGSTt1 (Locusta migratoria, UniProt F4YUJ7); test: as above; assay type: biochemical; settings: read-out: I50
T3 construct: E. coli BL21 (DE3)
T3 sequence (F4YUJ7 1-231): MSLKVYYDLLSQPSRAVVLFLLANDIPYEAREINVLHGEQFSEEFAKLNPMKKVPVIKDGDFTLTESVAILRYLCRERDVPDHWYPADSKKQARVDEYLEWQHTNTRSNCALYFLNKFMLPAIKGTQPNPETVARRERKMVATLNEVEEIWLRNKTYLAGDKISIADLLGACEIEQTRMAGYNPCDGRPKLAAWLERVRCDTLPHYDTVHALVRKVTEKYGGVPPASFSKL

LmGSTd1 [4] = target: T4, LmGSTd1 (Locusta migratoria, UniProt E7BTM5); test: as above; assay type: biochemical; settings: read-out: I50
T4 construct: E. coli JM109
T4 sequence (E7BTM5 1-218): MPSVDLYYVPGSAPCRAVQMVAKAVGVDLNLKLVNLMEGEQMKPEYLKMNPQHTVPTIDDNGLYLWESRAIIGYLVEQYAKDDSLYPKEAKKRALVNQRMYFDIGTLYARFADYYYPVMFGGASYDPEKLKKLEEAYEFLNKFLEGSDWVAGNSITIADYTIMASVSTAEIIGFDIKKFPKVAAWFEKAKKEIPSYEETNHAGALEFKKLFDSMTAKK

LmGSTt1 [5] = target: T3, LmGSTt1; test: GSH conjugation, absorbance […] nm, non-linear regression; assay type: biochemical; settings: read-out: CDNB / Km; 5 mM GSH, pH 7.5, 28°C; apparent
LmGSTu1 [6] = target: T1, LmGSTu1; test: as above; assay type: biochemical; settings: read-out: CDNB / Km; 5 mM GSH, pH 7.5, 28°C; apparent
LmGSTs5 [7] = target: T2, LmGSTs5; test: as above; assay type: biochemical; settings: read-out: CDNB / Km; 5 mM GSH, pH 7.5, 28°C; apparent
LmGSTd1 [8] = target: T4, LmGSTd1; test: as above; assay type: biochemical; settings: read-out: CDNB / Km; 5 mM GSH, pH 7.5, 28°C; apparent
purified protein [9] = substrate: O=[N+]([O-])c1ccc(Cl)c(Cl)c1; test: purified protein; settings: 5 mM GSH, pH 7.5, 28°C, apparent
purified protein [10] = substrate: O=[N+]([O-])c1ccc(CCl)cc1; test: purified protein; settings: 5 mM GSH, pH 7.5, 28°C, apparent
purified protein [11] = substrate: O=[N+]([O-])c1ccc(Cl)c(Cl)c1; test: purified protein; assay type: biochemical, Locusta migratoria; settings: 5 mM GSH, pH 7.5, 28°C, apparent
purified protein [12] = substrate: O=[N+]([O-])c1ccc(CCl)cc1; test: purified protein; assay type: biochemical, Locusta migratoria; settings: 5 mM GSH, pH 7.5, 28°C, apparent
[13] = 2 mM CDNB, 5 mM GSH, 0.1 M phosphate pH 7.5, 28°C

Molecule: reactive blue
- IC50 (LmGSTu1 [1]; [13]): 3.4 µM
- IC50 (LmGSTs5 [2]; [13]): 0.98 µM
- IC50 (LmGSTt1 [3]; [13]): 12.4 µM
- IC50 (LmGSTd1 [4]; [13]): 4.58 µM

Molecule: O=[N+]([O-])c1ccc(Cl)c([N+](=O)[O-])c1 [CDNB, 1-chloro-2,4-dinitrobenzene]
- Km (LmGSTt1 [5]): 4730 ± 350 µM
- Km (LmGSTu1 [6]): 250 ± 25 µM
- Km (LmGSTs5 [7]): 1170 ± 290 µM
- Km (LmGSTd1 [8]): 500 ± 25 µM

Molecule: C=C(CC)C(=O)c1ccc(OCC(=O)O)c(Cl)c1Cl [ethacrynic acid]
- IC50 (LmGSTu1 [1]): 3.27 µM
- IC50 (LmGSTs5 [2]): 33.8 µM
- IC50 (LmGSTt1 [3]): 4.7 µM
- IC50 (LmGSTd1 [4]): 2.2 µM

B1: LmGSTu1 (Locusta migratoria) (protein)
chain: MAPPTLFNVTLSPPCRLVRLVAGIIGVDLKVVDVKDISKEMKTPEMLKKNPQHTVPTLEDNGVYLAESRAIAMYLISKYAKDDSLYPKDVNKRVLVDQRLFYDQDLYNKILNVFLPKFFGKQTDPSSIEKVNEGLETLNRMLDGKQWLAGDNVTLADYAVAISLSSLDFVPESGIDPKKQPNINQWLPRVENSHPKYGEHLKEFHEALKKLTQK
- Km (purified protein [9]): 730 ± 64 µM
- Vmax (purified protein [9]): 0.00098 µmol/min/mg
- Km (purified protein [10]): 1580 ± 170 µM
- Vmax (purified protein [10]): 0.00677 µmol/min/mg

B2: LmGSTt1 (Locusta migratoria) (protein)
chain: MSLKVYYDLLSQPSRAVVLFLLANDIPYEAREINVLHGEQFSEEFAKLNPMKKVPVIKDGDFTLTESVAILRYLCRERDVPDHWYPADSKKQARVDEYLEWQHTNTRSNCALYFLNKFMLPAIKGTQPNPETVARRERKMVATLNEVEEIWLRNKTYLAGDKISIADLLGACEIEQTRMAGYNPCDGRPKLAAWLERVRCDTLPHYDTVHALVRKVTEKYGGVPPASFSKL
- Km (purified protein [10]): 7850 ± 1080 µM
- Vmax (purified protein [10]): 0.00143 µmol/min/mg

B3: LmGSTd1 (Locusta migratoria) (protein)
chain: MPSVDLYYVPGSAPCRAVQMVAKAVGVDLNLKLVNLMEGEQMKPEYLKMNPQHTVPTIDDNGLYLWESRAIIGYLVEQYAKDDSLYPKEAKKRALVNQRMYFDIGTLYARFADYYYPVMFGGASYDPEKLKKLEEAYEFLNKFLEGSDWVAGNSITIADYTIMASVSTAEIIGFDIKKFPKVAAWFEKAKKEIPSYEETNHAGALEFKKLFDSMTAKK
notes: E. coli JM109
- Km (purified protein [11]): 1000 ± 87 µM
- Vmax (purified protein [11]): 0.0004 µmol/min/mg
- Km (purified protein [12]): 6380 ± 570 µM
- Vmax (purified protein [12]): 0.049 µmol/min/mg

B4: LmGSTs5 (Locusta migratoria) (protein)
chain: MAPKYKLTYFPIMGLAEPIRFLLSYGKIEFEDERCDQDKWPSVKESTPLGKVPVLEIDGKTTWQSVAICRYLAKQLGLAGANDWEDLQIDMAVDTISDLRMKVAAYAYETDEALKEKKKQSLLNETLPFMLPRLDKMVKENGGYFANGKLSWADLYFAAIPINFMMGFDITKDYSNLSALKNTVCEIPAIKEWISKRPKTER
- Km (purified protein [9]): 1730 ± 240 µM
- Vmax (purified protein [9]): 0.00741 µmol/min/mg
- Km (purified protein [10]): 470 ± 83 µM
- Vmax (purified protein [10]): 0.156 µmol/min/mg
